In US20140099313A1:

Experiments:
[1] = biological target: human IL-13 wild type (human) (UniProt P35225); assay: competition, ELISA RBA: IL-13 to IL-13Rα2/Fc
[2] = biological target: human IL-13 wild type (human) (UniProt P35225); assay: competition, cell surface RBA: IL-13 to IL-13Rα2 on COS cells

Chain of human IL-13 wild type (human) (P35225 other isoform, or with tags, fused parts or gaps limits assumed): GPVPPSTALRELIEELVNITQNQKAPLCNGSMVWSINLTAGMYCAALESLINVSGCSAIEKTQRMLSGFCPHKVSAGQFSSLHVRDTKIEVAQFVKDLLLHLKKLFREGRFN

percent inhibition at 100 nM [1]: 60%
percent inhibition at 100 nM [2]: 70%
B1: MJ2-7 (antibody, from another filing, V domains shown)
VH: EVQLQQSGAELVKPGASVKLSCTGSGFNIKDTYIHWVKQRPEQGLEWIGRIDPANDNIKYDPKFQGKATITADTSSNTAYLQLNSLTSEDTAVYYCARSEENWYDFFDYWGQGTTLTVSS
VL: DVLMTQTPLSLPVSLGDQASISCRSSQSIVHSNGNTYLEWYLQKPGQSPKLLIYKVSNRFSGVPDRFSGSGSGTDFTLKISRVEAEDLGVYYCFQGSHIPYTFGGGTKLEIK
